From paper PMC4432651, “Dynamic interplay between catalytic and lectin domains of GalNAc-transferases modulates protein O-glycosylation” (Nature Communications, 2015)
Where no end group is shown, it is not given here.

Experiments:
[1] = target: T1, polypeptide N-acetylgalactosaminyltransferase 2 (GalNAc-T2), K75-Q571 (human, UniProt Q10471 75-571); assay: other fluorescence titration; tryptophan fluorescence quenching of GalNAc-T2 (1 µM) by peptides at 1-500 µM; 25 mM Tris, 150 mM NaCl, pH 7.5, 25 °C; with 400 µM UDP and 1 mM MnCl2; single binding site model; details: both partners purified
T1 construct: GalNAc-T2 (polypeptide N-acetylgalactosaminyltransferase 2), residues K75-Q571: catalytic domain, flexible linker and lectin domain; Theoretical MW 56.7 kDa (D1:p10); source: expression plasmid pPICZαAgalnact2 (K75-Q571)
T1 sequence (Q10471 75-571): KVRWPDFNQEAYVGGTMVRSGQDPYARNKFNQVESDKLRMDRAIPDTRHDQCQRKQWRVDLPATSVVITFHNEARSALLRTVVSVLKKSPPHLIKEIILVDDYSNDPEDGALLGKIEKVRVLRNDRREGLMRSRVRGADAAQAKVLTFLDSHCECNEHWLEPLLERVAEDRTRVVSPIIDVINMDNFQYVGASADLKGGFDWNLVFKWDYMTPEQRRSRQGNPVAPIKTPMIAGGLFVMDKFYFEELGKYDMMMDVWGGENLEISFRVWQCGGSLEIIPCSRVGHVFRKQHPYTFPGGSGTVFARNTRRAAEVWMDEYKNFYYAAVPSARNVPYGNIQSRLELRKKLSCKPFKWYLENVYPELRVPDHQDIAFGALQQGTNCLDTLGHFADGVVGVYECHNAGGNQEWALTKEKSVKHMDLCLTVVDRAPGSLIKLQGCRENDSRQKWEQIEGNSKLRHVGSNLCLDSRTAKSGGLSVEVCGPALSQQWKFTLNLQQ

[2] = target: T1, polypeptide …; assay: other fluorescence titration; tryptophan fluorescence quenching of GalNAc-T2 (1 µM) by peptides at 1-500 µM; 25 mM Tris, 150 mM NaCl, pH 7.5, 25 °C; no UDP/Mn2+; single binding site model; details: both partners purified
[3] = target: the molecule itself; assay: SAXS; solution scattering with ensemble analysis (EOM), monomer and dimer pools; enzyme without ligands (2.5, 5.0 and 10.0 mg/ml) or with UDP or UDP-GalNAc

B1: MUC5AC peptide (naked) (peptide)
peptide: GTTPSPVPTTSTTSA
notes: peptide named after mucin MUC5AC; Made on Rink amide resin, so the C-terminus is probably an amide (surmised); source: synthetic peptide (Fmoc solid-phase synthesis on Rink Amide MBHA resin, HPLC purified)
Kd [1]: 31 ± 16 µM
Kd [2]: 7 ± 3 µM

B2: MUC5AC-13 glycopeptide (peptide)
peptide: GTTPSPVPTTSTT(GalNAc)SA
notes: Made on Rink amide resin, so the C-terminus is probably an amide (surmised); source: synthetic peptide (Fmoc solid-phase synthesis on Rink Amide MBHA resin, HPLC purified)
Kd [1]: 5 ± 1 µM
Kd [2]: 8 ± 3 µM

B3: MUC5AC-3-13 diglycosylated peptide (peptide)
peptide: GTT(GalNAc)PSPVPTTSTT(GalNAc)SA
modifications: not fully specified (C-terminus)
notes: as for B2
Kd [1]: 17 ± 9 µM
Kd [2]: 11 ± 4 µM

B4: polypeptide N-acetylgalactosaminyltransferase 2 (GalNAc-T2), K75-Q571 (enzyme)
chain: not shown
notes: GalNAc-T2, residues K75-Q571, catalytic domain, flexible linker and lectin domain; Monomers and dimers coexist in solution by SAXS; also called wild-type (WT) enzyme
stoichiometry N [3]: 2
